The source of these data is US20180215801A1.

In this experiment the target is Activin B (UniProt P09529). Kind of experiment: SPR (Biacore 2000), Fc fusion captured on anti-human Fc chip, ligand injected, 1:1 Langmuir fit. A general note: In SPR one partner is held on a chip, and binding of the other changes the refractive index at the surface.
Sequence of Activin B (P09529 293-407 limits assumed): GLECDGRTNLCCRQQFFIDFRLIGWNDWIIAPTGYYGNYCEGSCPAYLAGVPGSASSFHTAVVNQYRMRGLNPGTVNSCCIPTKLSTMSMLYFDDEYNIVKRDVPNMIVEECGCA

Substance “BMPRII-Fc (BMPRII (1-120) fused to hIgG1-Fc) (from UniProt Q13873 27-120) (Fc fusion)” returned a Kd of 0.8 nM, a koff of 0.00042 s⁻¹ and a kon of 510000 M⁻¹ s⁻¹.

By Kd is commonly meant the free concentration of one partner at which half of the binding sites on the other are occupied at equilibrium, for simple one-to-one binding. The term koff denotes the rate constant with which the complex falls apart. The term kon denotes the rate constant with which the complex forms.
